The record followed here is patent publication US20210187069A1.

This test deals with wildtype SARM1 (endogenous, in wildtype mouse dorsal root ganglion neurons) (mouse) (UniProt Q6PDS3). Put plainly: cell-based or functional assay.
Sequence of wildtype SARM1 (endogenous, in wildtype mouse dorsal root ganglion neurons) (mouse) (Q6PDS3 28-724 limits assumed): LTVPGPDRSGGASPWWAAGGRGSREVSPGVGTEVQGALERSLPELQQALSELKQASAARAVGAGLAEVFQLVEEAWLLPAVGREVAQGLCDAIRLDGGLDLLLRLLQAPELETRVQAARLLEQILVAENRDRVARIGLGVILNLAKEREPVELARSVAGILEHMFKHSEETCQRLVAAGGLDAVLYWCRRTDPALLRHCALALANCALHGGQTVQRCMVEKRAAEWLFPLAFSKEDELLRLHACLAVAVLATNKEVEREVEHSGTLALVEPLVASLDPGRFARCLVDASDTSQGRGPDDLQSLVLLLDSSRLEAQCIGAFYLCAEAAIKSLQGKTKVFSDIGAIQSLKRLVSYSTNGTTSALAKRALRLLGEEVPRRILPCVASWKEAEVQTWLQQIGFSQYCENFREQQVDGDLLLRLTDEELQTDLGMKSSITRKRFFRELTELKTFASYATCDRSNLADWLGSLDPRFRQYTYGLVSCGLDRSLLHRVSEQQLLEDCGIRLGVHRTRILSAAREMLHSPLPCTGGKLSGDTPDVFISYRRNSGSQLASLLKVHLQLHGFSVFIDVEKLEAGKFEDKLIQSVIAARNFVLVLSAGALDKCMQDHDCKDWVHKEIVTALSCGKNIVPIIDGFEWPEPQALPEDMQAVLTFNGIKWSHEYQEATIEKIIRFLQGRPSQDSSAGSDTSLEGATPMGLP

“SARM1 E569K (from UniProt Q6SZW1 28-724)”: the axon degeneration after axotomy came to 24 h.
